This is an account of results in US20130225478A1 (YEDA RESEARCH AND DEVELOPMENT, published 2013).

One series has as its target T1, mTLR1 TM C′-CtoA (mouse, N-terminal fluorescein (FRET donor) or N-terminal rhodamine (TAMRA) label, depending on the assay; synthesized on Rink amide MBHA resin).
T1 construct: Synthetic peptide; Tested in PC:Cholesterol LUVs or HEPES buffer; also called mTLR1 C′ TM (C to A); TLR1 TM C-terminus peptide
T1 peptide: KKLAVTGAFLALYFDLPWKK
Kind of series: FRET in PC:Cholesterol LUVs, fluorescein-mTLR1 TM C′-CtoA donor, rhodamine-Cp acceptor (FIG. 2A). The text has this: FIGS. 2A-2C show fluorescence resonance energy transfer (FRET) between mTLR1 TM C′-CtoA (SEQ ID NO:83) and other TM peptides. mTLR1 TM C′ peptide was labeled with fluorescein (Donor) and loaded on PC:Cholesterol large unilamellar vesicles (LUVs). Changes in the intensity of the emission signal were monitored between 500 to 600 nm, upon the addition of successive amounts of rhodamine labeled mTLR1 TM C′-CtoA (SEQ ID NO:83; homodimers, 2B) and mTLR2 TM C′-CtoA (SEQ ID NO:86; heterodimers, 2C). Rhodamine labeled TCRα TM domain peptide (Cp; […]-NH2, SEQ ID NO:123) was used as a negative control (2A).
(§1) Large unilamellar vesicles (LUVs) composed of phosphatidylcholine (PC) and cholesterol (10:1, w/w), were prepared using the extrusion method as described previously (Cohen et al, 2008). The fluorescence experiments were performed with pairs of peptides using fluorescein labeled peptides as donors and rhodamine labeled peptides as acceptors. Fluorescence spectra were obtained at room temperature, with excitation set at 494 nm (10 nm slit) and emission scan at 500-600 nm (10 nm slits), by a Cary eclipse fluorescence spectrophotometer (Varian Inc., Palo Alto, Calif.). […] Fluorescence spectra were obtained before and after the addition of the rhodamine labeled peptides. Fluorescence values were corrected by subtracting the changes in emission obtained by adding HEPES only. […]

Another series addresses T2, mTLR1 TM N′ (mouse, N-terminal fluorescein (FRET donor) or N-terminal rhodamine (TAMRA) label, depending on the assay; synthesized on Rink amide MBHA resin).
T2 construct: Synthetic peptide; Tested in PC:Cholesterol LUVs or HEPES buffer; also called mTLR1 N′ TM; TLR1 TM N-terminus peptide
T2 peptide: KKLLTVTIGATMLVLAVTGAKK
Kind of series: FRET in PC:Cholesterol LUVs, fluorescein-mTLR1 TM N′ donor, rhodamine-Cp acceptor (FIG. 3A).
Excerpt: FIGS. 3A-3C show FRET between mTLR1 TM N′ (SEQ ID NO:77) and other TM peptides. mTLR1 TM N′ peptide labeled with fluorescein (donor) and loaded on PC:Cholesterol LUVs. Changes in the intensity of the emission signal were monitored between 500 to 600 nm, upon the addition of successive amounts of rhodamine labeled mTLR1 TM N′ (SEQ ID NO:77; homodimers, 3B) and mTLR2 TM N′-CtoA (SEQ ID NO:88; heterodimers, 3C). Rhodamine labeled TCRα TM domain peptide (Cp; […]-NH2, SEQ ID NO:123) was used as a negative control (3A).
as §1

Series [1] deals with the molecule itself. The series can be described thus: self-assembly assay, rhodamine dequenching after proteinase K, PC:Cholesterol LUVs (FIG. 7D). Here is the method:
(7A-7B) Rhodamine conjugated TLR peptides mTLR2 TM N′-CtoA (SEQ ID NO:88), mTLR2 TM C′-CtoA (SEQ ID NO:86), mTLR1 TM N′ (SEQ ID NO:77) and mTLR1 TM C′-CtoA (SEQ ID NO:83), were added to HEPES solution and their emission at 585 nm was recorded before and after the addition of proteinase K. The addition of the proteinase K is indicated by a black arrow. mTLR1 TM C′-CtoA (SEQ ID NO:83), mTLR1 TM N′ (SEQ ID NO:77) and mTLR2 TM C′-CtoA (SEQ ID NO:86) are capable to self assemble in solution, to a very slight extent (7A). mTLR2 TM N′-CtoA (SEQ ID NO:88) highly oligomerise in solution (black line, 7B) and is partially dissociated in the presence of LUVs (gray line, 7B). […] LL37 is shown as an example for a peptide that is highly oligomerised in liposomes (7D).
We have tested this characteristic, both in solution and on a membrane interface. We measured the initial emission of rhodamine labeled peptides at 580 nm in solution only, or in a solution containing PC:Cholesterol LUVs, and then followed the increase of the emission over time after the addition of protease-K to the medium. […] The known oligomeric antimicrobial peptide LL37 (Rosenfeld et al., 2006a) was used as a positive control.

Ends that are not written are not given here.

B1: Cp, the core TM peptide of TCRα (peptide)
peptide: GLRILLLKV-NH2
modifications: also: rhodamine label
notes: Negative control in the FRET experiments; also called TCRα TM domain peptide
With B1, the binding result with mTLR1 TM C′-CtoA and with mTLR1 TM N′ was “no binding” each time.

B2: LL37 (peptide, UniProt P49913 134-170, looked up)
peptide: LLGDFFRKSKEKIGKEFKRIVQRIKDFLRNLVPRTES
modifications: also: rhodamine label
notes: Positive control of the self-assembly assay; LL-37 is the C-terminal 37 residues of the cathelicidin precursor; also called oligomeric antimicrobial peptide LL37
As to B2, in series [1], the binding result is on record as “binds”.
